Measured values from US20240270846A1 (published 2024).
Positions count from the first letter of the chain named. Where no end group is shown, it is not given here.

T1: biotin-labeled cynomolgus monkey CD137 fused to human IgG1 Fc fragment (cynomolgus monkey, UniProt Q07011 24-186 (human entry), limits assumed, biotin-labeled)
T1 construct: also called cyno CD137-Fc; not shown: human IgG1 Fc fragment
T1 chain: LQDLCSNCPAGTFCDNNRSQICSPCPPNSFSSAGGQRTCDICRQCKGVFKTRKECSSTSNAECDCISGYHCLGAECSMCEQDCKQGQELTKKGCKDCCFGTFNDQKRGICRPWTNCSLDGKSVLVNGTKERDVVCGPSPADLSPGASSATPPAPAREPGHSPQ

T2: biotin-labeled CD3 epsilon peptide antigen (human, also: biotin-labeled, position not given here)
T2 construct: Peptide of CD3 epsilon; also called CD3 peptide
T2 peptide: QDGNEEMGGITQTPY

T3: biotinylated CD3 epsilon epitope peptide (UniProt P07766 22-48, biotinylated)
T3 chain: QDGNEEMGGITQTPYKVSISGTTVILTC

B1: DADU01_3#002 (antibody, human IgG1, V domains shown)
VH: QVQLVESGGGLVQPGRSLRLSCAASGFTFSNAWMHWVRQAPGKGLEWVAQIKDKQNLYNAYYAESVKGRFTISRDDSKNSIYLQMNSLKTEDTAVYYCHYVHYASASTVLPAFGVDAWGQGTTVTVSS
VL: DIVMTQSPLSLPVTPGEPASISCRSSQSLVHSNRNTYLHWYQQKPGQAPRLLIYKVSNRFSGVPDRFSGSGSGTDFTLKISRVEAEDVGVYYCGQGTQVPYTFGQGTKLEIK
notes: IgG: VH joined to human IgG1 CH1-Fc; also called dBBDu124
B2: DADU01_3#001 (antibody, human IgG1, V domains shown)
VH: QVQLVESGGGLVQPGRSLRLSCAASGFTFSIAWMHWVRQAPGKGLEWVAQIKDRVNAYEAYYAPSVKGRFTISRDDSKNSIYLQMNSLKTEDTAVYYCRYVHYASYYDLLGYGGVDAWGQGTTVTVSS
VL: B1 VL
notes: IgG: VH joined to human IgG1 CH1-Fc; also called dBBDu_126; dBBDu126
B3: DXDU01_3#072 (antibody, human IgG1, V domains shown)
VH: B1 VH with K54R, Q55S, N56Q, N59A, E64P, P111G, F113Y
VL: B1 VL
notes: IgG: VH joined to human IgG1 CH1-Fc; also called dBBDu122
B4: DXDU01_3#094 (antibody, human IgG1, V domains shown)
VH: B1 VH with Q55G, L57A, N59A, E64P, S107A, T108G, V109G, A112G
VL: B1 VL
notes: IgG: VH joined to human IgG1 CH1-Fc; also called dBBDu121
B5: DXDU01_3#019 (antibody, human IgG1, V domains shown)
VH: B2 VH with R54K, A57G, E59T, P64E, S105A, L109V
VL: B1 VL
notes: IgG: VH joined to human IgG1 CH1-Fc; also called dBBDu125
B6: DXDU01_3#051 (antibody, human IgG1, V domains shown)
VH: B1 VH with K54R, Q55G, N56Q, L57Q, E64P, T108S, A112G, F113Y
VL: B1 VL
notes: IgG: VH joined to human IgG1 CH1-Fc; also called dBBDu127
B7: DADU01_3#018 (antibody, human IgG1, V domains shown)
VH: B1 VH with K54R, Q55A, L57S, E64P, A104S, S105A, V109L, A112S
VL: B1 VL
notes: IgG: VH joined to human IgG1 CH1-Fc; also called dBBDu123
B8: anti-human CD137 antibody described in WO2005/035584A1 (abbreviated as B) (antibody, V domains shown)
VH: QVQLQQWGAGLLKPSETLSLTCAVYGGSFSGYYWSWIRQSPEKGLEWIGEINHGGYVTYNPSLESRVTISVDTSKNQFSLKLSSVTAADTAVYYCARDYGPGNYDWYFDLWGRGTLVTVSS
VL: EIVLTQSPATLSLSPGERATLSCRASQSVSSYLAWYQQKPGQAPRLLIYDASNRATGIPARFSGSGSGTDFTLTISSLEPEDFAVYYCQQRSNWPPALTFGGGTKVEIK
notes: Control antibody; also called control anti-CD137 antibody
B9: DADU01_3#002 (antibody, human IgG1, V domains shown)
VH: B1 VH
VL: DIVMTQSPLSLPVTPGEPASISCRSSQSLVHSNRNTYLHWYQQKPGQAPRLLIYKVSNRFSGVPDRFSGSGSGTDFTLKISRVEAEDVGVYYCGQGTQVPYTFGQGTKLEIKR
notes: also called dBBDu124
B10: DXDU01_3#072 (antibody, human IgG1, V domains shown)
VH: B1 VH with K54R, Q55S, N56Q, N59A, E64P, P111G, F113Y
VL: B9 VL
notes: also called dBBDu122
B11: NNS6f58 (CE115HA340 with SWQVSR inserted between Kabat positions 99 and 100), one-arm antibody (antibody, V domains shown)
VH: QVQLVESGGGLVQPGRSLRLSCAASGFTFSNAWMHWVRQAPGKGLEWVAQIKDKSNNYATYYAESVKGRFTISRDDSKNSIYLQMNSLKTEDTAVYYCRYVHYAASWQVSRYYGVDAWGQGTTVTVSS
VL: B9 VL
B12: NNS6f71 (CE115HA340 with GWVLGS inserted between Kabat positions 99 and 100), one-arm antibody (antibody, V domains shown)
VH: B11 VH with S106G, Q108V, V109L, S110G, R111S
VL: B9 VL
B13: NNS6f67 (CE115HA340 with GLLRAA inserted between Kabat positions 99 and 100), one-arm antibody (antibody, V domains shown)
VH: B11 VH with S106G, W107L, Q108L, V109R, S110A, R111A
VL: B9 VL
B14: NNS6f68 (CE115HA340 with VEWGRW inserted between Kabat positions 99 and 100), one-arm antibody (antibody, V domains shown)
VH: B11 VH with S106V, W107E, Q108W, V109G, S110R, R111W
VL: B9 VL
B15: NNS6f72 (CE115HA340 with EGIWWG inserted between Kabat positions 99 and 100), one-arm antibody (antibody, V domains shown)
VH: B11 VH with S106E, W107G, Q108I, V109W, S110W, R111G
VL: B9 VL
B16: NNS6f73 (CE115HA340 with WVVGVR inserted between Kabat positions 99 and 100), one-arm antibody (antibody, V domains shown)
VH: B11 VH with S106W, W107V, Q108V, V109G, S110V
VL: B9 VL
B17: NNS6f64 (CE115HA340 with LVSLTV inserted between Kabat positions 99 and 100), one-arm antibody (antibody, V domains shown)
VH: B11 VH with S106L, W107V, Q108S, V109L, S110T, R111V
VL: B9 VL
B18: NNS6f59 (CE115HA340 with LLVQEG inserted between Kabat positions 99 and 100), one-arm antibody (antibody)
chain 1: QVQLVESGGGLVQPGRSLRLSCAASGFTFSNAWMHWVRQAPGKGLEWVAQIKDKSNNYATYYAESVKGRFTISRDDSKNSIYLQMNSLKTEDTAVYYCRYVHYAALLVQEGYYGVDAWGQGTTVTVSSASTKGPSVFPLAPSSKSTSGGTAALGCLVKDYFPEPVTVSWNSGALTSGVHTFPAVLQSSGLYSLSSVVTVPSSSLGTQTYICNVNHKPSNTKVDKKVEPKSCDKTHTCPPCPAPEAAGGPSVFLFPPKPKDTLMISRTPEVTCVVVDVSHEDPEVKFNWYVDGVEVHNAKTKPREEQYASTYRVVSVLTVLHQDWLNGKEYKCKVSNKALPAPIEKTISKAKGQPREPQVYTLPPSRCELTKNQVSLSCAVKGFYPSDIAVEWESNGQPENNYKTTPPVLDSDGSFFLVSKLTVDKSRWQQGNVFSCSVMHEALHNHYTQKSLSLSPDYKDDDDK
chain 2: EPKSSDKTHTCPPCPAPELLGGPSVFLFPPKPKDTLMISRTPEVTCVVVDVSHEDPEVKFNWYVDGVEVHNAKTKPREEQYNSTYRVVSVLTVLHQDWLNGKEYKCKVSNKALPAPIEKTISKAKGQPREPQVCTLPPSRDELTKNQVSLWCLVKGFYPSDIAVEWESNGQPENNYKTTPPVLDSDGSFFLYSKLTVDKSRWQQGNVFSCSVMHEALHNRYTQKSLSLSP
chain 3: DIVMTQSPLSLPVTPGEPASISCRSSQSLVHSNRNTYLHWYQQKPGQAPRLLIYKVSNRFSGVPDRFSGSGSGTDFTLKISRVEAEDVGVYYCGQGTQVPYTFGQGTKLEIKRTVAAPSVFIFPPSDEQLKSGTASVVCLLNNFYPREAKVQWKVDNALQSGNSQESVTEQDSKDSTYSLSSTLTLSKADYEKHKVYACEVTHQGLSSPVTKSFNRGEC
B19: NNS6f62 (CE115HA340 with NGGTRH inserted between Kabat positions 99 and 100), one-arm antibody (antibody)
chain 1: B18 chain 1 with L106N, L107G, V108G, Q109T, E110R, G111H
chain 2: B18 chain 2
chain 3: B18 chain 3
B20: NNS6f63 (CE115HA340 with GGGGWV inserted between Kabat positions 99 and 100), one-arm antibody (antibody)
chain 1: B18 chain 1 with L106G, L107G, V108G, Q109G, E110W, G111V
chain 2: B18 chain 2
chain 3: B18 chain 3

target: T4, biotin-labeled human CD137 fused to human IgG1 Fc fragment (human, biotin-labeled); experiment: bead ELISA; RLU on human CD137-Fc divided by RLU on human Fc
T4 construct: also called human CD137-Fc; biotin-human CD137-Fc

| Binder | S/N ratio human CD137-Fc/Fc |
| --- | --- |
| B1 | 20.3 |
| B2 | 54.1 |
| B3 | 6.58 |
| B4 | 10.2 |
| B5 | 23.8 |
| B6 | 13.1 |
| B7 | 17.3 |

target: T5, biotin-labeled human CD137 fused to human IgG1 Fc fragment (human CD137-Fc) (human, biotin-labeled); experiment: competitive bead ELISA, biotin-human CD137-Fc on beads, 100 ng IgG, control competitor free human Fc 62.5 pmol
T5 construct: also called biotin-human CD137-Fc

| Binder | ELISA signal with Free Fc 62.5 pmol |
| --- | --- |
| B8 | 184000 |
| B9 | 155000 |

target: T4, biotin-labeled human CD137 fused to …; experiment: bead ELISA (chemiluminescence), purified IgG on biotin labeled human CD137-Fc on streptavidin beads

| Binder | RLU |
| --- | --- |
| B1 | 39100 RLU |
| B2 | 95300 RLU |
| B3 | 14100 RLU |
| B4 | 24200 RLU |
| B5 | 77800 RLU |
| B6 | 38100 RLU |
| B7 | 32800 RLU |

Target: T1, biotin-labeled cynomolgus monkey CD137 …
Experiment: bead ELISA; RLU on cyno CD137-Fc divided by RLU on human Fc

| Binder | S/N ratio cyno CD137-Fc/Fc |
| --- | --- |
| B1 | 5.6 |
| B2 | 0.687 |
| B3 | 1.56 |
| B4 | 8.09 |
| B5 | 1.56 |
| B6 | 3.73 |
| B7 | 3.27 |

Target: T2, biotin-labeled CD3 epsilon peptide …
Experiment: bead ELISA, biotin-CD3 epsilon peptide on streptavidin beads, 100 ng IgG

| Binder | RLU, CD3 peptide | S/N ratio CD3 peptide/non coating |
| --- | --- | --- |
| B9 | 174000 RLU | 156 |
| B10 | 177000 RLU | 148 |

target: T5, biotin-labeled human CD137 fused to …; experiment: competitive bead ELISA, biotin-human CD137-Fc on beads, 100 ng IgG, competitor free CD3 epsilon peptide 62.5 pmol

| Binder | ELISA signal with Free CD3e 62.5 pmol |
| --- | --- |
| B8 | 183000 |
| B9 | 9970 |

Target: T1, biotin-labeled cynomolgus monkey CD137 …
Experiment: bead ELISA (chemiluminescence), purified IgG on biotin labeled cyno CD137-Fc on streptavidin beads

| Binder | RLU |
| --- | --- |
| B1 | 10800 RLU |
| B2 | 1210 RLU |
| B3 | 3350 RLU |
| B4 | 19100 RLU |
| B5 | 5090 RLU |
| B6 | 10900 RLU |
| B7 | 6200 RLU |

target: T5, biotin-labeled human CD137 fused to …; experiment: competitive bead ELISA, biotin-human CD137-Fc on beads; free CD3e 62.5 pmol against free Fc 62.5 pmol

| Binder | Signal decrease |
| --- | --- |
| B8 | 0.94% |
| B9 | 93.6% |

Target: T3, biotinylated CD3 epsilon epitope peptide
Experiment: SPR (Biacore); biotinylated CD3 epsilon epitope peptide on chip via streptavidin, antibody as analyte

| Binder | Kd |
| --- | --- |
| B11 | 44 nM |
| B12 | 51 nM |
| B13 | 36 nM |
| B14 | 45 nM |
| B15 | 150 nM |
| B16 | 26 nM |
| B17 | 78 nM |
| B18 | 200 nM |
| B19 | 61 nM |
| B20 | 69 nM |
